Experimental data taken from the supplement of paper PMC6755084.

B1: F1*; the commonest letter at each place (parent)
chain: GAGACCGCAACTGAAAAGTTGTTATCACTTGTCGTAAGACACTTTGGATGGGTTGAAGTTCTGCACGTAGAAGCAAAAGGC

Variants of: B1
Test: fraction ligated after 30 min (ligated reads / total reads); higher = more ligase activity
Settings: with F1*sub RNA substrate (template-directed ligation), 42 °C
Summary of the method: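 Ligase ribozyme variants were made from oligo-pool templates by PCR amplification, T7 transcription and gel purification. After gel separation, ligated and unligated bands were reverse transcribed with barcoded primers and sequenced on a MiSeq, with core bases filtered at quality ≥20. The fraction ligated for each variant was the number of ligated reads divided by total reads.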

Row | Variant | fraction ligated
1 | T45A G50T | 0.0542
2 | T45A G50C | 0.0158
3 | T45A G50A | 0.0303
4 | T45A | 0.787
5 | T45C | 0.74
6 | T45G | 0.385
7 | T43G A56T | 0.764
8 | T43G A56G | 0.717
9 | T43G A56C | 0.713
10 | G47A T49G | 0.798
11 | G47A T49C | 0.773
12 | G47A T49A | 0.806
13 | T45G G46A | 0.032
14 | T45G G46T | 0.246
15 | T45G G46C | 0.0668
16 | T43G T49C | 0.726
17 | T43G T49G | 0.743
18 | T43G T49A | 0.76
19 | T45C G55C | 0.0438
20 | T45C G55T | 0.134
21 | T45C G55A | 0.521
22 | T43A G55C | 0.724
23 | T43A G55T | 0.839
24 | T43A G55A | 0.854

Row | Variant | fraction ligated
25 | T43C A48G | 0.764
26 | T43C A48C | 0.723
27 | T43C A48T | 0.668
28 | T45G G47T | 0.0452
29 | T45G G47C | 0.194
30 | T45G G47A | 0.781
31 | G46A A57C | 0.793
32 | G46A A57T | 0.803
33 | G46A A57G | 0.799
34 | T44A G46A | 0.816
35 | T44A G46T | 0.81
36 | T44A G46C | 0.793
37 | T44G T45C | 0.797
38 | T44G T45A | 0.769
39 | T44G T45G | 0.35
40 | T43G G46C | 0.783
41 | T43G G46T | 0.787
42 | T43G G46A | 0.808
43 | T45A G55C | 0.067
44 | T45A G55T | 0.144
45 | T45A G55A | 0.274
46 | T44G G46C | 0.806
47 | T44G G46T | 0.805
48 | T44G G46A | 0.818

Row | Variant | fraction ligated
49 | G46T G55C | 0.111
50 | G46T G55A | 0.726
51 | G46T G55T | 0.482
52 | G46A G50A | 0.0565
53 | G46A G50C | 0.0754
54 | G46A G50T | 0.232
55 | T44G A48G | 0.787
56 | T44G A48T | 0.782
57 | T44G A48C | 0.757
58 | T45C G50A | 0.0234
59 | T45C G50C | 0.0165
60 | T45C G50T | 0.0706
61 | G46A T49G | 0.627
62 | G46A T49C | 0.38
63 | G46A T49A | 0.501
64 | T44C A56T | 0.78
65 | T44C A56C | 0.791
66 | T44C A56G | 0.793
67 | G47A A56T | 0.181
68 | G47A A56C | 0.125
69 | G47A A56G | 0.098
70 | G46T G50C | 0.0286
71 | G46T G50T | 0.148
72 | G46T G50A | 0.0502

Row | Variant | fraction ligated
73 | G47C | 0.236
74 | G47A | 0.788
75 | G46C T49G | 0.407
76 | G46C T49C | 0.0853
77 | G46C T49A | 0.344
78 | T43C T49G | 0.665
79 | T43C T49C | 0.427
80 | T43C T49A | 0.638
81 | T43G G50A | 0.311
82 | T43G G50T | 0.561
83 | T43G G50C | 0.273
84 | T44A A48C | 0.758
85 | T44A A48G | 0.808
86 | T44A A48T | 0.82
87 | T44A G47C | 0.117
88 | T44A G47T | 0.55
89 | T44A G47A | 0.773
90 | T45C A56G | 0.569
91 | T45C A56C | 0.747
92 | T45C A56T | 0.473
93 | T44A | 0.849
94 | T44C | 0.837
95 | T44G | 0.844
96 | T44C G50C | 0.224

Row | Variant | fraction ligated
97 | T44C G50A | 0.406
98 | T44C G50T | 0.691
99 | G46T A48C | 0.127
100 | G46T A48G | 0.352
101 | G46T A48T | 0.144
102 | T45C G47C | 0.31
103 | T45C G47T | 0.379
104 | T45C G47A | 0.366
105 | G47C A56T | 0.0769
106 | G47C A56G | 0.0569
107 | G47C A56C | 0.0635
108 | T45A G46C | 0.0374
109 | T45A G46A | 0.178
110 | T45A G46T | 0.403
111 | T45G G55T | 0.0383
112 | T45G G55A | 0.045
113 | T45G G55C | 0.0194
114 | T45A T49C | 0.0557
115 | T45A T49A | 0.0341
116 | T45A T49G | 0.0993
117 | T45A A57G | 0.752
118 | T45A A57C | 0.773
119 | T45A A57T | 0.794
120 | T43A G50C | 0.153

Row | Variant | fraction ligated
121 | T43A G50T | 0.614
122 | T45A G47C | 0.217
123 | T45A G47T | 0.205
124 | T45A G47A | 0.478
125 | G47A A57G | 0.774
126 | G47A A57C | 0.703
127 | G47A A57T | 0.77
128 | G46A A48C | 0.675
129 | G46A A48G | 0.609
130 | G46A A48T | 0.0714
131 | T44A A56G | 0.777
132 | T44A A56T | 0.801
133 | T44A A56C | 0.797
134 | G47A A48G | 0.61
135 | G47A A48C | 0.723
136 | G47A A48T | 0.803
137 | T43G T45A | 0.763
138 | T43G T45G | 0.0141
139 | T43G T45C | 0.319
140 | T43C T45G | 0.257
141 | T43C T45C | 0.584
142 | T43C T45A | 0.574
143 | T45C T49A | 0.0409
144 | T45C T49G | 0.0625

Row | Variant | fraction ligated
145 | T45C T49C | 0.0485
146 | G46T T49A | 0.192
147 | G46T T49G | 0.277
148 | G46T T49C | 0.148
149 | G46C A48T | 0.0498
150 | G46C A48C | 0.621
151 | G46C A48G | 0.191
152 | G46A G55C | 0.224
153 | G46A G55A | 0.786
154 | G46A G55T | 0.783
155 | T43G T44G | 0.809
156 | T43G T44A | 0.808
157 | T43G T44C | 0.809
158 | G46A G47A | 0.804
159 | G46A G47T | 0.115
160 | G46A G47C | 0.146
161 | G46A | 0.812
162 | G46T | 0.791
163 | G46C | 0.804
164 | T43G | 0.822
165 | T43C | 0.81
166 | T44A G55A | 0.827
167 | T44A G55C | 0.795
